In a protein production outcome set (Wang et al. 2014) one finds protein production data, which are given here for 17 sequences.

The nature of this series: label from the status in PepcDB records.
As to “MAHPPQIRIPATYLRGGTSKGVFFRLEDLPESCRVPGEARDRLFMRVIGSPDPYAAHIDGMGGATSSTSKCVILSKSSQPGHDVDYLYGQVSIDKPFVDWSGNCGNLSTGAGAFALHAGLVDPARIPEDGICEVRIWQANIGKTIIAHVPVSGGQVQETGDFELDGVTFPAAEIVLEFLDPSDDGEDGGAIFPTGNLVDDLEVPGVGTFKATMINAGIPTVFVNAEEIGYRGTELREEINGDPQQLARFERIRVAGALRMGLIKTPEEAATRQHTPKIAFVAPPRDYRTASGKLVAAGDIDLLVRALSMGKLHHAMMGTAAVAIGTAAAIPGTLVNLAAGGGERSAVRFGHPSGTLRVGAEASQANGEWTVTKAIMSRSARILMEGWVRVPGDAF”, the protein production result is “not failed”. As for “MERKRYSKRYCKYTEAKISFIDYKDLDMLKHTLSERYKIMPRRLTGNSKKWQERVEVAIKRARHMALIPYIVDRKKVVDSPFKQH”, the entry is “failed”; as for “MDFLPIFVIIASVMTAVSVYLIYLVKKGINGIGFLLVLYLSGSMLTMFISLSIALSNTALTTEILALTVNTAYMIVGLVSILLLGASRRKIESRKWYTVLLFSLLMTISEAVMGESFYSILTKSIGNPLIGTENYWFYAVMLAEMTFTLVYSFNSLTRQIRNYLLVTLPIMVVSPVILPTFSIWLSSLLMIVATIIIYDTLYRDRLKKTQETFTSLELMLIFTLMMAGIFTYYVTSSWYLYDISMILGMTWFIYRAIQGPSSIKGNYLRDSRWTFAFVLMTFVMEWFMGAVLDFASSYFSPGVEGFISSLPLGFVNPFSYFGAGALFDFLSIFGSVTGSVWFLVMMGLEMGTLAIFRIKEVRLRENRIRLALMVSAFAIYAVYIPSFSPLASKIPYIPYMWSMGLGTLGPVSTDYLLSGIVGTYVLSAVLSFLFGSRQICSVTCTAPTMYQGTFYNSLKVYNRTSSFARKTLSSKLRPWYKLIAIAVWSSLLAFAVISYFDQKGILNITIFGNDPTMFLYSFYFNFLWYVVFISIPFSGNYACVTQGWCSWGTFNQFFGGLGLFRLKVKDPELCVKCETKACSKACPVGNTDLPGNFIKKGEFKSSRCIGVGDCAEACPYDNIMFYDVRSWLKEKIKGDKM”, “failed”. As for “MSHRRDYGSDAVHVRITHDPPPENCFPNSGDSSVWATEDDYSRVWAINSDGAESPSKKTRSSSSSEIGKSFFKTKLCFKFRAGTCPYSASSCHFAHSAEELRLPPPPPPNWQETVTEASRNRESFAVSLGPRGNVAQTLKSPNWKTRICNKWQTTGYCPFGSHCHFAHGPSGKATAFFIY”, the protein production result is on record as “failed”. The result for “MAGAITHDHAAAAQGRQGGPLIVTEDVELLDDLLRLCAAAGARPEVHHTVPDGRGTWEAAPLVLVGDDAARRVRGAARRRGVVLVGRDQDDSGVWRRAVEIGADHVLLLPDGEQWLVDRIADVAEGVGRPALTVGVIGGRGGAGASTLACALAVTSARQGRRTLLVDADPLGGGLDVLLGGETAEGLRWPAFAASRGRVGGGALEESLPELHALRVLSWDRGDAVAVPPQAVRAVLAAARRRGGAVVVDLPRRVDEGAAEALAQVDLGVLVVPAELRAIAAAARVASAAGMVLGDLRVAVRGPYAPGLDDREVARLLGLPLLGEVPAEPPVPDGGVPPGGAARGPLARFCAVFWDRALVEAGGVLEHHHHHH” reads “failed”; that for “MELKMNDINQHSFLKLGSVRHIQSEQEALEIAKEMANQLNQFARNPSYNKTVPYDQARLISEAGLTAIIVPKQFGGLGASISTLVNVVKIISSADGGVGQLLQIHFTMFRGILTGYDDEIRDQLLADVLSGKRLGNALAEVGGKDKFQHKTRVERNSEGKLILNGSKFYSTGSLLAEWISLFAGSDDGPVSILIHRDTQGVELLNDWDAMGQNNSVSGTVNFKDVVVDERYVAKRNTGGLGTVLRTGLTWPQILHAAMDTGIAKGALQGGIDYLQHHARPWVESGVDSPTHESHIIKQIGEFAVLVRSAEALLDRSAQIFEQHLANVEDEDLQTELILSVAATRSQSDHASLKISSEIFGLLGASSTLSKWNLDRFWRNARTHTTHDPIRWRLYHVGNYYLNNIPPGEYNSVLLKKQAENVTKFSK”, “failed”.

As for “MKRAFAAVAATVCLFLLVQLGSLALVEPFMSAGFQAVEDPSDPTNSLLYIIAILVATGVMLAAMKFGVDRLLQGLVLFAAVFISFYVFTVVVPPVVAVAGLNLVAVALALALGVGLLVYPEWYVIDAAGIVMGAGAAGLFGISFGLLPALVLLVVLAVYDAISVYGTEHMLALASGAMDLRLPVIFVVPLTLSYSFLDADNPESLEDDTPESDAEAEPDEGDDVSTATGDAEPVDTMAEDADTDADSDADADDPAAAEAAPDEHADPFARDAFFIGLGDAVIPTILVASAAFFRPGGVELLSVPGIALTVPALGAMVGTIAGLLALMWFVMKGRAHAGLPLLNGGAIAGYLLGAAAVGIPVVEALGVAPYL”, the protein production result is listed as “failed”.

Regarding “DGQTYQIGFEMRLPVSWNGRFLYQGNGGTDGNIATATGQVGSGGMLSNALKDGFAVISSDAGHSSAQNPLFGLDPQARINYGYGAITKLTPMAKDLIKTAYGKLPDRSYAGGTSNGGRHAMMAATRLGDQYDGILASTPGFHLPRAAAAQLYTAQQLRRVATDENDLSTALTYAERNVLANAILTRCDALDGVADGMVQDVEACRTAFDIHKDVPVCSGSRDGSCLSKDQIDVVANIYRGPVNSSGEALYATQPYDPGLLGSNWASWKFVSSVGTARDPVAVGIIFQVPPDPTIVQNSRKFAFNYNFDTDYPKLSATNSTYSESAMSFMIPPDELNLDKLRLHGGKMIVVQGTADGVFSVDDTQNWYDKLMAKYKSSSLGDAQSFARFYRVPGMNHSRGGLATDQFDALTALVNWVEYGQA”, the protein production entry was “failed”. As for “MSHDHHHHHGPGAAHGAGGHSHAPQDFGRAFAIGIALNMVFVVAEAAFGYFSNSMALIADAGHNLSDVAGLVVAWIAAGLSKRPPSARYTYGLRGSSILAALFNAVFLLLAVGAIGWEAVVRLFAPEPVAGITVMVVAGIGIVINAVTAWLFASGRHSDLNIRGAYLHMAADAAVSAAVVVAGVIILSTGWYWIDPAVSLIVAVVIVWGTWGLLRDSTALSLAAVPRDIDPTAVRAFLSKLPGVTQVHDLHIWGMSTTEVALTCHLVMPGGSPGDPFLVDLAHELQHDFGIAHTTVQIETDPNTVCALAPEHVV”, the entry is “failed”; as for “MARKTAQSKRGVFNMDRLTSMAVFVKAVDLGSFAAAAEALGLSGPMVGKHVRSLEDRLGVQLINRTTRRQSLTEFGYVYYERCRVVLAEAQAADALASDQLSEPRGKLRVTMPVHFGRHCVTPVLLELARKYPALELDLSFNDRIIDLAEDGFDLSIRTGVLEDRAGLIARRVARQPMIVCASPSYLESHGCPEAPEDLAQHAAVVYRRSGPVSPWLFPRPGQSSSEVTPLHRFRLDDLDAIADAAARGLGLAWLPYWLVRGRIEAGTLVRLLPEQPPFLYDCHAVWLQTPHLPLKVRVAVDALAAQLPSFMT”, “failed”. Take “MSLGFVTAAYIIAALLFIMSLAGLSKHETAKAGCWYGISGMAIALFATIFGPQSYGTIWILIAMAIGGYIGIQKALKVEMTAMPELVAILHSFVGLAAVLVGFNSYGLHNDPLIPSNLDAVARANFIVEQQTLATIHYIEVFLGIFIGAVTFSGSLIAFGKLSGNLFGCKVSSVALNLPNKHKLNLAALIISGLLMMVFLNNPVNIFPVLIMTIIALALGWHLVASIGGADMPVVVSMLNSYSGWAAAAAGFMLSNDLLIVTGALVGSSGAILSYIMCKAMNRSFISVIAGGFGNEMKADSAAEQAQGEHRETTVEDVAEMLKNAHSVIITPGYGMAVAQAQYPVAEITAKLREKGINVRFGIHPVAGRLPGHMNVLLAEAKVPYDVVLEMDEINDDFENTDVVLVIGANDTVNPAALDDPSSPIAGMPVLEVWKAQNVVVFKRSMAVGYAGVQNPLFFKENTQMLFGDAKERVDDILRALN”: the protein production entry was “failed”.

On to “MIKSDDAGKLILRLALGILVIMHGLAKLSSGVGGIAGMLSSHGLPGFLAYFAYVGEIVGPLLIILGIYCRLGALLVVLNMVVAILLAHMGQLFSISNTGGWALELQGMFLFGALALAFMGAGRFSLAGSGGRWN”, for which the protein production result is “failed”. As for “MTGAETGSHFRRHALDAKPIGMSDHEQTKLIATAMNEGSPQAKALGFTTLEIGDAVALLKVPYRPEIIGDPETGVIAGGVVTTLLDHASGQAVHAAMETWTSIATLDLRIDYMRAAEPGLDVMARAHCYKLTRSVAFVRAVAYDRDPEDPIATGQATFMLDSSAGKKAGANLKPSRQQRSKTGGVDQ”, the entry is “failed”. Regarding “MSLTPYEPFRHLDQMRREFDRFFPDFPIDLPNRHLTLSPKMDVHETDHEVILECDIPGLESKEDLQIDVEPRSVRIEGRIKRSKEVHDERFYRREREIGHFRRVVPLPAEVAEDDIRAAYRNGVLEVRMRKRLDDRRRTIDVEFHLEHHHHHH”, the protein production entry was “not failed”.

As to “MRIGVYVCHCGLNIAGVIDVSALEEMAGELEDVVLAREVQFLCSDSGQEGIIKDIKDNKIDRVVIAACSPRLHEKTFRHVMEKADLNPYLMEMVNIREQCSWVHADDPQMATQKAFDLIRMGVAKARFLRELSATSSKASRNVLIIGGGVAGIEAALNLAEAGFPVTMVERESTIGGKMALMNEVFPTNDCSICVLAPKMTEVQNHPNITLYTYSEVTDISGSVGKFHVRVTRKPRFVLEDKCKGCVDLCSEVCPVEIENPMNYGIGKSRAIYMPIPQSVPQVVLIDPDHCVGCGLCQLACPAEAVDYEQKPEEIEFEAGAVIVSTGYQLFDASRKKEYGFGKYPDVITNMQLERMLNSAGPTGGRVLVPSTGQPPESVAFIQCVGSRDKTVGNEHCSRVCCMAALKNSQMVKERYPGTDITIHYIDIRAAGEMYEEYYARTQGMGVDFIRGKVAEVYAGEDGRPVVRYENTLESRVEEEAHDLVVLSTGYEPSKAAEGIGRMLNLARRPDRFFASAHPKMRPVDAPVSGVFLAGCASGPKEIQVSIAQGSACASKVMQLLGTGELEADPMGAHVDPDKCIGCRTCVEVCKFGKISIVDKKAVVDEVSCYGCGDCSAACPVGAIQMRNFENEQILAQVRAATAHKSQCPFVVAFLCNWCSYACADLTGMSRIHYPTNIRVIRTMCSARINPEFVLEALKGGADGVLVAGCRMDECHYIHGNFDAKKRMDVLKEIIKEIGLDPKRLRTLWISAAEGERFSNTITEFVKELEEIGPIGSELKREYTATGLEEVAK”, the protein production result is “failed”. Take “MSNSSMSVVILAAGKGTRMYSDLPKVLHPLAGKPMVQHVIDAAMKLGAQHVHLVYGHGGELLKKTLADPSLNWVLQAEQLGTGHAMQQAAPHFADDEDILMLYGDVPLISVDTLQRLLAAKPEGGIGLLTVKLDNPSGYGRIVRENGDVVGIVEHKDASDAQREINEINTGILVANGRDLKRWLSLLDNNNAQGEFYITDIIALAHADGKKIATVHPTRLSEVEGVNNRLQLSALERVFQTEQAEKLLLAGVMLLDPSRFDLRGELTHGRDITIDTNVIIEGHVILGDRVRIGTGCVLKNCVIGDDSEISPYTVLEDARLDANCTVGPFARLRPGAELAEGAHVGNFVEIKKARLGKGSKAGHLSYLGDAEIGAGVNIGAGTITCNYDGANKFKTIIGDDVFVGSDTQLVAPVTVANGATIGAGTTVTRDVAENELVISRVKQVHIQGWKRPVKKK”: the protein production result is on record as “not failed”.

Take “MLVNRIISATVAGLVAVVIGFASSVALIYQTVINLGGDASLASSWILTLGLSMGITSIALSFYYRVPILIAWSTPGAALLIANTQNFNLNEAIAGFMFSALLIFLCGITGWFEKLINKLPFQLASAMLGGILVNFGIDVFNQMNKAPLLVIVMFFTYLVCRQLMPKFTMLFVLIISVVLAWQLKLMTFTAFSWQLSEFTYISPEFNMSAVLGIGIPLFLVTMAAQNLPGIAVLKAHNYKAPVSSILSVTGFVNMLAAPFGGYAINLAAITAAICMTKDVDKDPKKRYWAGISGGGFYILMAISAGYLMQAFASLPNALIYSLAGMALFTTINSSIQQALSDDKMSEAAIITFLVTASNLSLWDISSVLWGLIAGSITLMTQSLLNRSNDKLC”: the protein production result is “failed”.
